50 sequences from the domain aggregation screens of Martell et al. (2025) can be followed below.

A short description of this data set: soluble fraction after stress (log2 fold change); higher = more stays soluble; pooled small domains, quantitative proteomics. Conditions: stress: pH 4. The procedure, abridged: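 Aggregation propensity is estimated from the fold change in each domain's soluble amount after acid stress. Pooled small-domain libraries were stressed at pH 4, and higher log2 values mean more stayed soluble.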

For the sequence “HMDDERDRLVQQAMEGLSPALREILLLAYFQRMPYNQIAESLRIPLGTVKSRLHAAVAAFAKRWQELNRS”, the “soluble fraction (log2)” value is -0.475.
Turning to “HMDDFNLSPREKDVLGHLVKGNSYKMIADELQIGYDTVHSHIKKIYKKLHVNSMSEAVAKALKNKL”, the “soluble fraction (log2)” value was -0.26.
With “HMDDGARQLVDQLNRLIANPAVSARIIHGYLILEGRVESEWEKTRTLLLAQVAGLPVIDLITVS” the figure was -2.12; with “HMDDGLTRLTPRENEVLELMAQGRSNTAIAERLVLSYGAVEKNVSSIFTKLDLPLDAGDHRRVLAVLRRLN”, -0.677; with “HMDDGNHTEYIVLEKAKFYDEAGEYEEGRDLVLSFDKYQDNWKLVYTLGVFNKKLNNLEEARKYYKQALE”, -0.846.
As for “HMDDHKQHLIDFYHSRKRMPTYTEMMALFGYKSKNAVARLVEKMIDAGIVTKDKLGKLLPTTLFDSVPL”, the “soluble fraction (log2)” value was -0.0996.
Regarding “HMDDHLRLSDNERISAMSALATHFTEGRLDTSEFDERTLAASQAKSRGDLRPLFDDLPGQLPAALSP”, the “soluble fraction (log2)” value is -0.125.
Consider “HMDDKLKKLEEVFEMQEGTLTPDMRLDELEEWDSMTRLSLIVMMEDDYGKKVKRSEVMNYTTVQDIVDSME”, for which the “soluble fraction (log2)” value was -0.946.
As for “HMDDLSPEENKVIGAQVREELARRRLSRQHLADKAKISLSTLEKALTGTRPFTLASVVRIEEALQLQLRK”, the figure is 0.344.
Take “HMDDPEISQEQRQQLFRTAKEHFGASGNDVLKEILADHGRDSTVKMPVSVFAEIMGDLLKRALD”: the “soluble fraction (log2)” value was -0.121.
On to “HMDDPQAELLARAVRRVALAAAERTRRNEYGGVYLGLFRQFGISSYRRTPPARLHEALEWLERWRGDLM”, for which the “soluble fraction (log2)” value is -0.378.
Consider “HMDDTVILPIQINGKRRAEISVPKAMPASEVEKLALANEDVLRFLAGQPIKKLIVVPGRIINVV”, for which the “soluble fraction (log2)” value was not below 0.43.
“HMDDVGERIRKIREEKNLSLDEISKMTGFDVEFLAKIENKERQPQLGTVIKLSKALDSAFGRL”: the “soluble fraction (log2)” value is -0.0445.
Regarding “HMDDVGYLRKRLQQALAQLSDDLRNTYTLFQIGKQSIKQIAAETGASESLVKVRIHRAKQKLQELLADLQ”, the “soluble fraction (log2)” value was -0.054.
“HMDEDLQEALRKLNPIQANERKLLLKMLEQHRWNVSSVAKAFDVSRNTLYRRLHKLHIPLSNPSE”: the “soluble fraction (log2)” value came to 0.172.
For “HMDEEAIELTQEVMKLPPKQREVILLYYYHGLTGKEIAKALGISGAAVSKRLKQAKNQLHFALK”, the “soluble fraction (log2)” value was found to be 0.0819.
For the sequence “HMDEEVLVVQEGGERLDVFVAANAEGITRSFVQNLIKKGDVTVDGAPRKANYRLRSGQVVRFSLPEP”, the “soluble fraction (log2)” value came out at 0.293.
Consider “HMDEFEEGVITYFNSEKGFGFIRESKTKQSVFVHSKQLSSPVQLNDKVKFIVNKGLKGLEATEVSVI”, for which the “soluble fraction (log2)” value was not below 0.43.
Turning to “HMDEFQLTPREQEILGLLVKGYTYKRIASELNLSYATVNRHVSNVYVKLRVHSVNEAVALAVRKGL”, the “soluble fraction (log2)” value was -0.543.
For the sequence “HMDEKLAHKLVSDFRQAAASLERFPFRNPVLRSEVFTVEKYRKLVFDKYHILLYQVKDQVVYVEYVIDGRQ”, the “soluble fraction (log2)” value was not below 0.43.
Turning to “HMDEKVTIPSVSGLLLSEAKTKLVDAGLTVETVYDDESKEAKDTVLSQSPLQYGKVDKGTVVTLTVSSGKG”, the “soluble fraction (log2)” value was 0.417.
In the case of “HMDELPKDILRSFGLPDKPWAMELLRNLRRDGFALDGETARAYAEMAAMKPPRTDARQWMTAADVAYRRG”, the “soluble fraction (log2)” value was 0.105.
In the case of “HMDEMPVEFVKISIKAGHPWENRKIKDLASLPDLLLVLILRGEERIIPNGNTVVLAGDKIVLSALSPE”, the “soluble fraction (log2)” value is -1.94.
As to “HMDENILKTRIEDLDLSVRTIKALTGASIRTVSGLARKKESDLLEISGLGDKGIQEIKRALGSLGITL”, the “soluble fraction (log2)” value is -0.0429.
On to “HMDENTEQESQTVVVPDVTGKSLSEAASILREAGLDYLAEQTGTVVTKQMPLPDAEVLINTTVLLYTDSE”, for which the “soluble fraction (log2)” value was -0.456.
As for “HMDEPSITYGKVKVQTSLNVRQGPGTQYARIGSLGPNVRIQILGQEGQWYKIKYGNLQGYVHSDYVELEK”, the figure is -0.376; as for “HMDEQKNREIALIENIQREDLNPYEKALGIRNLMDKYGLTQEEVSKRIGKSRSAVSNTVRILNLAPDVL”, -0.0309.
As for “HMDEQLAWLYRKINAFSEIDKALILLYLEDKKYDEIAETLGISSVNARVKMNRIKKRLKEMINDR”, the “soluble fraction (log2)” value was -1.02.
With “HMDEQVETLKNLISELPKEQLEVLVMRHYEDLSFKEISEKTGVSINTALGRMRYALINIRKLMKENN”, the “soluble fraction (log2)” value is -0.488.
Take “HMDESLIEEAKAMILQMKIEGSVRVRSNGLLEFRNPLFGSVYGRSVEELQEKLNKKVREQKSRI”: the “soluble fraction (log2)” value was found to be 0.194.
As to “HMDEVPMPPEYQYLRVGSRVHHATFGWGKVTRLSQPWPQTRAEVFFENIGPKKLVLAHAHLTMD”, the “soluble fraction (log2)” value was 0.113.
On to “HMDEYTAVDSRLDLELAMKRLKPEEAEVLRLVFDYGLPQRAIAERLGVSQMSVSRMQRRAIGKLKRWLSDN”, for which the “soluble fraction (log2)” value is -0.678.
On to “HMDFKKKIIESWADIAETLRGLTVDSNISDWTTKQKNAYETLADKAELAGLSIADLNSILVELGYM”, for which the “soluble fraction (log2)” value is -0.378.
“HMDFNDPTMEKSLVELPAMSNSTLRDLSENNIKKLEELAEMSVGELMDIASKISESDASALIMEARKPWF”: the “soluble fraction (log2)” value is -0.741.
Consider “HMDFRVGVWVELVQQRRSVRTQLTWVSPQHTLFLFTAKDGSTQSMTLRMRDKLLAEGNLRIVAPPSR”, for which the “soluble fraction (log2)” value worked out at 0.22.
For “HMDFSENEPVTVRVLSILKNNTIRIAVKGAVLQAQTALSQDIREGAFLLMRVHITDNTVVLTPY”, the “soluble fraction (log2)” value was -0.193.
“HMDFSNVNFSQVSDSELDLLMRRASAQGYTQFDLLKIARAQGLTQAEIEKLDKRFKSAETVAYVAENA”: the “soluble fraction (log2)” value is 0.0811.
Consider “HMDFTHFTLKQDGKFAGSSNLLHQAVIAAARLAAETGKPVTVMAHVRGGGTRKAVFNPDGTNDKIWN”, for which the “soluble fraction (log2)” value is -0.0338.
“HMDGAPVTVIKNGEVDVATTMRVGLSASELMFKLRAAGVDEVQIVHRAVLEQNGQLTIIKYGEE”: the “soluble fraction (log2)” value is -1.2.
For the sequence “HMDGASVQRITELTATLNRYRHEYYNLAKPSVSDAVYDRLFDELAALEQKTGIVLSNSPTQTV”, the “soluble fraction (log2)” value was -0.759.
On to “HMDGFVFVMPIKETRMFSVNDERPLVGIVKYSNGEFEKEQLIGFRPNSEYEFIIEGQRLYRVPVNSITIK”, for which the “soluble fraction (log2)” value was -1.25.
Take “HMDGIRLYPGLMIEHKNFGRGQVVSVNRERGTFTAFFGKNGTRTLTIQILKTDTVRPLASQKAGK”: the “soluble fraction (log2)” value is -0.405.
Regarding “HMDGKPSLIISNGQINYKEMVKLRYSLEDLLFQLRQNSIKSIEEVEYAFLESNGKLSIFPYNFL”, the “soluble fraction (log2)” value was -1.65.
Regarding “HMDGLGLGAVILAQRKRQGWTQEDLAARIGVSKGAVSKWETGQSYPDLPLVPRLAALFHITVDELLDYR”, the “soluble fraction (log2)” value stood at 0.263.
Take “HMDGLIRLNKLLATLGVESRRHAEEMIIAGRITVDGVTATEKGQKVRRGAVIKVDGVEVGPPP”: the “soluble fraction (log2)” value stood at 0.0501.
As for “HMDGQPQLLIKNGQLLVSTALKNGMSANDLMFRLRTEGITDIRYVKRAVLEQNGQLTITQVGDD”, the figure is -0.0398.
Regarding “HMDGVTEYTVKSGDSFSAIINKHYNVNYDEKLMQAVAAYNNIEDMNKLQLGQIIKLPPKEQLNL”, the “soluble fraction (log2)” value is -0.118.
For the sequence “HMDGYVPAERIASEVGVSARTITREMHGLEMTLMPYGIALLRRTGAGFMLAGTAKALADLRKHMTEDADTQ”, the “soluble fraction (log2)” value stood at 0.167.
As for “HMDHAHWEEHEVKLLLTLAIQEKEKFNWNQFGLTREGWRNIYPHFPQYSRKQINNKFDFLKQKYRAWKDS”, the “soluble fraction (log2)” value was -1.09.
As for “HMDHAVINSEEVTIKDLSEKIGVSAAEIIKALFTEGIIKTINDKIEYEYAQYVAGMFGVELTLKL”, the figure is 0.188.
